Data set [1] deals with 6×His-thioredoxin-fused ZAD domain of Zw5 (aa 1–103) (Drosophila melanogaster). Description: cross-linking.
The data set “cross-linking” deals with the molecule itself. Description: cross-linking.

The record followed here is article PMC5009728 (Nucleic Acids Research, 2016).

For “6×His-thioredoxin-fused ZAD domain of Zw5 (aa 1–103) (domain or fragment)”, the stoichiometry N in data set [1] worked out at 2.

B1: 6×His-thioredoxin-fused ZAD domain of ZIPIC (aa 3–81) (domain or fragment, Drosophila, UniProt Q9VAB8 3-81, looked up)
chain: CCICQFSVRVPKDIHTDTVGHPPVLISELVLQCTRGTNYVLTEESSTICKKCCEKLARYHKSIQIARKLRGEILELIHS
In the case of B1, the “stoichiometry N” value in the data set “cross-linking” amounted to 2.

B2: 6×His-thioredoxin-fused ZAD domain of Pita (aa 1–109) (domain or fragment, Drosophila melanogaster, UniProt Q95RQ8 1-109, looked up)
chain: MAAKLEVREAMLTEKRVCRFCLTEQKLASIFEENPRVKTTANLPLQIMAITAIEVYAGDGMPGHICLECRLLFEHCYRFKQMCKRAETLLRQYPLTGNWPSPLEKPRAP
For the molecule B2, the “stoichiometry N” value in “cross-linking” was 2.

B3: 6×His-thioredoxin-fused ZAD domain of Grauzone (aa 1–84) (domain or fragment, Drosophila melanogaster, UniProt Q9U405 1-84, looked up)
chain: MDICRLCLRGVSGAQMCLQIFDVDSGESKVAEVLRQHFWFEVLPNDEISKVICNVCWTQVSEFHQFYVSIQEAQVIYATTSKFK
In the case of B3, the “stoichiometry N” value in “cross-linking” came out at 2.

One may read the stoichiometry N as a count of units in the complex or per binding partner.
